Laboratory results as given in patent publication US7867500B2, “Cofactor that modulates steroid receptor activities” (The United States of America as represented by the …, priority 2004, dated 2011).

Assays:
[1] = system: GR repression of an AP-1 induced gene; assay: GR-mediated repression of PMA-induced AP-1/Luc reporter in U2OS.rGR cells; type: cell-based; conditions: for fold repression of PMA-induced AP-1 expression by Dex-bound GR: 25 μM PMA ± 0.1 μM Dex, TIF2 20 ng, STAMP 100 ng plasmid
Description: FIG. 5A-F illustrate STAMP modulation of GR-mediated repression. […] U2OS.rGR cells were transiently transfected with ±TIF2 (20 ng)±STAMP (100 ng) plasmids, AP-1/Luc reporter (20 ng), and Renilla control (10 ng) plasmid. The cells were induced with ethanol (EtOH) or 25 μM PMA±0.1 μM Dex. […] The average values±S.E.M. of four experiments are plotted. The numbers in parentheses above the bars labeled “PMA+Dex” represent the average fold repression caused by Dex± the various factors.
FIG. 5B illustrates that functional TIF2 is needed for optimal STAMP activity. U2OS.rGR cells were transiently transfected and processed as described for FIG. 5A but less STAMP (50 ng) was used and two concentrations of TIF2 or TIF2m123 (10 and 20 ng) were employed. The average values±S.E.M. of 4-5 experiments are plotted. An asterisk indicates a significant difference (P≦0.031) between samples containing equal amounts of TIF2 and TIF2m123.
Rogatsky et al. have reported that TIF2 augments GR repression of an AP-1 induced gene. […] The TIF2 domain identified as having TIF2 activity in GR repression was the same as used to isolate STAMP. In order to determine if STAMP was active in GR-mediated gene repression as well as induction, the ability of STAMP to increase the repressive activity of GR in the AP-1 responsive whole cell bioassay system was assessed using U2OS.rGR cells.

[2] = target: T1, glucocorticoid receptor (GR) (Rattus norvegicus, UniProt P06536); assay: GR-mediated induction of GREtkLUC reporter, transient transfection of CV-1 cells
T1 sequence (P06536 1-795): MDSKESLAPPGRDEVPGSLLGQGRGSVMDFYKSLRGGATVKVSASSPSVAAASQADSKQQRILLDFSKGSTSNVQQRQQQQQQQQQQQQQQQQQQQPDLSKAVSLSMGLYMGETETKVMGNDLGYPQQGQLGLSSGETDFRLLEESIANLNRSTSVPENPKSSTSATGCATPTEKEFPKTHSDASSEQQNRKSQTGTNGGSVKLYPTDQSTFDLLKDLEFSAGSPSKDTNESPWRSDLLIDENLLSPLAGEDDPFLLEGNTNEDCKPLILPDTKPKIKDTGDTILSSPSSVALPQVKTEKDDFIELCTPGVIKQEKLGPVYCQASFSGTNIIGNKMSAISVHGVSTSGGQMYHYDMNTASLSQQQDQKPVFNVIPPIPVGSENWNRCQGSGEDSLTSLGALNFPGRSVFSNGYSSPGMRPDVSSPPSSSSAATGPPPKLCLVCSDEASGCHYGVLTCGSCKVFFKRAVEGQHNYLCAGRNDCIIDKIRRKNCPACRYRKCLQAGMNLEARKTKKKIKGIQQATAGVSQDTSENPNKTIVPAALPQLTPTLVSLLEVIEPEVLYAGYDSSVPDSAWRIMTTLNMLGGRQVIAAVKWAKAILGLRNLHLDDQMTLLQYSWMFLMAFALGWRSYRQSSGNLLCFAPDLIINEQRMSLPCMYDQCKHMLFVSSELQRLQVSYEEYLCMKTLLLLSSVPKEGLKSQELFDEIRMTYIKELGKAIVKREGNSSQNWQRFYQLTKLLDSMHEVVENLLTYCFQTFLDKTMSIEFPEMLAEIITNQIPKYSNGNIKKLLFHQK
Description: Triplicate samples of CV-1 cells were transiently transfected with GR (6 ng)±TIF2 (20 ng)±STAMP (160 ng) plasmids, GREtkLUC reporter, and Renilla control plasmid. […] FIG. 4B illustrates the fold changes in GR induction parameters by STAMP and TIF2. […] The fold-increase in each parameter was determined as follows: for EC50s, fold increase=[EC50]GR/[EC50]GR+factor; for partial agonist activity and fold Dex induction, fold increase=activityGR+factor/activityGR). The average fold increases were then plotted±S.E.M (n=4).
CV-1 cells were transiently transfected with GR (6 ng)±TIF2 (20 ng)±STAMP (160 ng) plasmids, GREtkLUC reporter, and Renilla control plasmid, and induced with ethanol± the indicated concentrations of Dex.
Tests were run to determine whether exogenous STAMP can modulate the EC50 of glucocorticoids and the partial agonist activity of antiglucocorticoids in the transient transfection assays where GR induced gene expression from a GREtkLUC reporter.

GR = target: T2, GR (Rattus norvegicus, UniProt P06536); assay: Mammalian two-hybrid assay in CV-1 cells with VP16/GR; type: cell-based; conditions: VP16/GR ± 1 μM Dex
T2 construct: plus VP16 fused to the indicated full length receptors; expressed in transfected cells; host or cells: CV-1
T2 sequence (P06536 1-795): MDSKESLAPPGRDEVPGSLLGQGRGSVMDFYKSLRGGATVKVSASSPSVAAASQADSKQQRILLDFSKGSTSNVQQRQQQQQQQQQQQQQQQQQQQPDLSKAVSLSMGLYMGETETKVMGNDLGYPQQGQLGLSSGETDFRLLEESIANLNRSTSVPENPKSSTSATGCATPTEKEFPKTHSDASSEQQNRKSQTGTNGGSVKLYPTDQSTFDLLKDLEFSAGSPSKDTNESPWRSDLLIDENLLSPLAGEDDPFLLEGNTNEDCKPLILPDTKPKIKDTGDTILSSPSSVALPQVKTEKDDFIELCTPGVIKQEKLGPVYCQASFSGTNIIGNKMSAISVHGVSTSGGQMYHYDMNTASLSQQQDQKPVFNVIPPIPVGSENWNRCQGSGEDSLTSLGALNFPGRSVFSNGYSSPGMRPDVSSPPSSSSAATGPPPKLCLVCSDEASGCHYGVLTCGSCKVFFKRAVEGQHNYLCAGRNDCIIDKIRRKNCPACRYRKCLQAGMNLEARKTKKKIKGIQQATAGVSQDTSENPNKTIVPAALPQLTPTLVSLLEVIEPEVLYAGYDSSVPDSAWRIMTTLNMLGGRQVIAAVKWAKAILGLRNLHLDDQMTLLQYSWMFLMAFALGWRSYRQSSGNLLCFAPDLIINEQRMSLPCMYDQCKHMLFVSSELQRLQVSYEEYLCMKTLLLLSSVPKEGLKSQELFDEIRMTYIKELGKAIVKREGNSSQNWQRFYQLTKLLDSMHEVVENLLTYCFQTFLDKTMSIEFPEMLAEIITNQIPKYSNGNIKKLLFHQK
Description: FIGS. 6A and 6B illustrate the domains of STAMP that interact with TIF2.4 (FIG. 6A) and GR (FIG. 6B) in the mammalian two-hybrid assay. […] These CV-1 cells were also transfected with GAL fused to the indicated segments of STAMP along with the FRLuc reporter and Renilla control plasmids. After determining the relative luciferase activities as described in FIG. 2B and 2C, the average values±S.E.M. from 2-5 experiments were plotted. The average fold increase for VP16/TIF2.4 with GAL/STAMP(623-834) in FIG. 6A was 11.0±3.0 (SEM, n=5) above the VP16 control. The values in parentheses above the data bars in FIG. 6B indicate the fold increased interaction ±1 μM Dex.
These assays were conducted as described (He et al., 2002). In particular, the recommended procedure for the Mammalian Matchmaker two-hybrid assay kit (Clontech) was modified slightly by changing from a chloramphenicol acetyltransferase reporter to a Luciferase Reporter pFRLuc (Stratagene), which is under the control of five repeats of the upstream activating sequence for the binding of GAL4.

[3] = in the presence of transfected GR and TIF2

## C[C@@H]1C[C@H]2[C@@H]3CCC4=CC(=O)C=C[C@]4(C)[C@@]3(F)[C@@H](O)C[C@]2(C)[C@@]1(O)C(=O)CO [dexamethasone]
[1]
  fold repression of PMA-induced AP-1 expression by Dex-bound GR: about 5 fold

## TIF2: glucocorticoid receptor coactivator transcription intermediary factor-2
[1]
  fold repression of PMA-induced AP-1 expression by Dex-bound GR: about 9 fold
[1]; 25 μM PMA, no Dex
  fold induction by PMA: unchanged
[2]; TIF2 alone (FIG. 4A1)
  effect on GR dose-response curve and induction parameters: similar, small effect

B1: GAL/N834: STAMP fragment amino acids 1-834, TTL domain and CID region (protein)
chain: MARDLEETASSSEDEEVISQEDHPCIMWTGGCRRIPVLVFHADAILTKDNNIRVIGERYHLSYKIVRTDSRLVRSILTAHGFHEVHPSSTDYNLMWTGSHLKPFLLRTLSEAQKVNHFPRSYELTRKDRLYKNIIRMQHTHGFKVFHILPQTFLLPAEYAEFCNSYSKDRGPWIVKPVASSRGRGVYLINNPNQISLEENILVSRYINNPLLIDDFKFDVRLYVLVTSYDPLVIYLYEEGLARFATVRYDQGAKNIRNQFMHLTNYSVNKKSGDYVSCDDPEVEDYGNKWSMSAMLRYLKQEGRDTTALMAHVEDLIIKTIISAELAIATACKTFVPHRSSCFELYGFDVLIDSTLKPWLLEVNLSPSLACDAPLDLKIKASMISDMFTVVGFVCQDPAQRASTRPIYPTFESSRRNPFQKPQRCRPLSASDAEMKNLVGSAREKGPGKLGGSVLGLSMEEIKVLRRVKEENDRRGGFIRIFPTSETWEIYGSYLEHKTSMNYMLATRLFQDRMTADGAPELKIESLNSKAKLHAALYERKLLSLEVRKRRRRSSRLRAMRPKYPVITQPAEMNVKTETESEEEEEVALDNEDEEQEASQEESAGFLRENQAKYTPSLTALVENTPKENSMKVREWNNKGGHCCKLETQELEPKFNLMQILQDNGNLSKMQARIAFSAYLQHVQIRLMKDSGGQTFSASWAAKEDEQMELVVRFLKRASNNLQHSLRMVLPSRRLALLERRRILAHQLGDFIIVYNKETEQMAEKKSKKKVEEEEEDGVNMENFQEFIRQASEAELEEVLTFYTQKNKSASVFLGTHSKISKNNNNYSDSGAKG
modifications: GAL4 DBD fusion
notes: STAMP fragment amino acids 1-834, TTL domain and CID region
GR
  interaction with GR: relative inactivity

B2: 1127C: STAMP fragment amino acids 1127 to 1277, C-terminal part of the RID (protein)
chain: TGVVPQHKYHPTAGSYQLQFALQQLEQQKLQSRQLLDQSRARHQAIFGSQTLPNSNLWTMNNGAGCRISSATASGQKPTTLPQKVVPPPSSCASLVPKPPPNHEQVLRRATSQKASKGSSAEGQLNGLQSSLNPAASVPITSSTDPAHTKI
modifications: GAL4 DBD fusion
notes: STAMP fragment amino acids 1127 to 1277, C-terminal part of the RID
GR
  interaction with GR: largest agonist-induced changes

B3: 956-1127: STAMP fragment amino acids 956 to 1127, portion of the RID region (protein)
chain: LPRCRSGSHTIGPFSSFQSAAHIYSQKLSRPSSAKAGSCYLNKHHSGIAKTQKEGEDASLYSKRYNQSMVTAELQRLAEKQAARQYSPSSHINLLTQQVTNLNLATGIINRSSASAPPTLRPIISPSGPTWSTQSDPQAPENHSSSPGSRSLQTGGFAWEGEVENNVYSQAT
modifications: GAL4 DBD fusion
notes: STAMP fragment amino acids 956 to 1127, portion of the RID region
GR
  interaction with GR: largest agonist-induced changes

B4: STAMP(834-956): STAMP fragment amino acids 834-956, N-terminal portion of the RID (protein)
chain: GDHPETIMEEVKIKPPKQQQTTEIHSDKLSRFTTSAEKEAKLVYSNSSSGPTATLQKIPNTHLSSVTTSDLSPGPCHHSSLSQIPSAIPSMPHQPTILLNTVSASASPCLHPGAQNIPSPTGL
modifications: GAL4 DBD fusion
notes: STAMP fragment amino acids 834-956, N-terminal portion of the RID
GR
  interaction with GR: substantial ligand-independent association

B5: STAMP623C: STAMP fragment amino acids 623 to 1277, CID and RID but no TTL domain (protein)
chain: ENTPKENSMKVREWNNKGGHCCKLETQELEPKFNLMQILQDNGNLSKMQARIAFSAYLQHVQIRLMKDSGGQTFSASWAAKEDEQMELVVRFLKRASNNLQHSLRMVLPSRRLALLERRRILAHQLGDFIIVYNKETEQMAEKKSKKKVEEEEEDGVNMENFQEFIRQASEAELEEVLTFYTQKNKSASVFLGTHSKISKNNNNYSDSGAKGDHPETIMEEVKIKPPKQQQTTEIHSDKLSRFTTSAEKEAKLVYSNSSSGPTATLQKIPNTHLSSVTTSDLSPGPCHHSSLSQIPSAIPSMPHQPTILLNTVSASASPCLHPGAQNIPSPTGLPRCRSGSHTIGPFSSFQSAAHIYSQKLSRPSSAKAGSCYLNKHHSGIAKTQKEGEDASLYSKRYNQSMVTAELQRLAEKQAARQYSPSSHINLLTQQVTNLNLATGIINRSSASAPPTLRPIISPSGPTWSTQSDPQAPENHSSSPGSRSLQTGGFAWEGEVENNVYSQATGVVPQHKYHPTAGSYQLQFALQQLEQQKLQSRQLLDQSRARHQAIFGSQTLPNSNLWTMNNGAGCRISSATASGQKPTTLPQKVVPPPSSCASLVPKPPPNHEQVLRRATSQKASKGSSAEGQLNGLQSSLNPAASVPITSSTDPAHTKI
[2]; [3]
  ability to increase the partial agonist activity of Dex-Mes, retained: 40%
  capacity of full length STAMP to increase the fold induction with Dex, retained: 85%
